From US20060235215A1 (published 2006)
Each block holds one binder with its values, some of them ahead of it.

B5: OsSGT1, bait fragment aa 200-368 (other)
chain: QMLSVSIEVPGEEPYHFQPRLFSKIIPEKSRYQVLSTKVEIRLAKAEQITWTSLDYDKKPKAVPQKIIPPAESAQRPSYPSSKSKKDWDKLEAEVKKEEKEEKLEGDAALNKFFRDIYSDADEDMRRAMMKSFVESNGTVLSTNWKDVGSKKVEGSPPDGMELKKWEY
notes: bait; also called PN20285

Experiments:
Test in all cases: yeast two-hybrid
[1] = target: B5
Protocol: (§1) Yeast carrying the target gene construct was combined with yeast carrying the activation domain library. The two yeast strains mated to form diploid yeast and were plated on media that selected for expression of one or more Ga14p-responsive reporter genes. Thus, both hybrid proteins (i.e., the target “bait” protein and the activation domain “prey” protein) were expressed in a yeast reporter strain where an interaction between the test proteins results in transcription of the reporter genes […]. Colonies that arose after incubation were selected for further characterization. The activation domain plasmid was isolated from each colony obtained in the two-hybrid search. The sequence of the insert in this construct was obtained by sequence analysis (e.g., Sanger's dideoxy nucleotide chain termination method; see Ausubel et al., 1988, including updates up to 2002). Thus, the identity of positives obtained from these searches was determined by sequence analysis against proprietary and public (e.g., GENBANK®) nucleic acid and protein databases.
(§2) The rice SGT1 protein shares 74 and 75% amino acid sequence similarity with two Arabidopsis thaliana SGT1 homologs and 45% amino acid sequence similarity with Saccharomyces cerevisiae SGT1. In yeast, SGT1 is required for cell-cycle progression at the G1/S-phase and G2/M-phase transitions. In A. thaliana, SGT1b interacts with Rar1 and mediates disease resistance. Thus, in plants, SGT1 likely controls processes that are fundamental to disease resistance and development. The rice OsSGT1 protein was chosen as a bait for these interaction studies based on its potential relevance to disease resistance and development.

[2] = target: T1, Elicitor responsive protein, bait fragment aa 23-120 (Oryza sativa, UniProt Q0JBH9 23-120)
T1 construct: bait; also called OsERP; PN20696
T1 sequence: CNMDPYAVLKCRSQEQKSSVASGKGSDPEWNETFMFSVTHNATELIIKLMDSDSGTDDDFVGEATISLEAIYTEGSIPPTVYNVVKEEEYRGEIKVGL

[3] = target: T2, O. sativa Calreticulin Precursor, bait fragment aa 1-150 (Oryza sativa, UniProt Q9SLY8 1-150)
T2 construct: bait; also called OsCRTC; PN20544
T2 sequence (Q9SLY8 1-150): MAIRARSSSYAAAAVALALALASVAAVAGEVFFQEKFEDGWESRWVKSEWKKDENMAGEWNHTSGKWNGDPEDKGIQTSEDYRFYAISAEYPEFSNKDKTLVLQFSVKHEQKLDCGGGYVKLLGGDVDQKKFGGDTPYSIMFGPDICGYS

[4] = target: T3, Auxin induced protein-like PN24061, prey clone aa 34-236 (Oryza sativa, UniProt A2XLV9 34-236)
T3 construct: prey; AD fusion; output trait library
T3 sequence: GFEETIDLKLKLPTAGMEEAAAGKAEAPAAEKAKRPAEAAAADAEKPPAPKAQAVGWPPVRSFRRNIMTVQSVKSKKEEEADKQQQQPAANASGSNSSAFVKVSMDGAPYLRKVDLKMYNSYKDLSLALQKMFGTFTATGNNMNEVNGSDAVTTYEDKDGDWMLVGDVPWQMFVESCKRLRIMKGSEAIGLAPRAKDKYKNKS
Protocol: as §1, §2

[5] = target: T4, O. sativa Serine/Threonine Protein Phosphatase PP2A-2, Catalytic Subunit, bait fragment aa 150-308 (Oryza sativa, UniProt A2XN40 150-307)
T4 construct: bait; also called OsPP2A-2; PN20254
T4 sequence: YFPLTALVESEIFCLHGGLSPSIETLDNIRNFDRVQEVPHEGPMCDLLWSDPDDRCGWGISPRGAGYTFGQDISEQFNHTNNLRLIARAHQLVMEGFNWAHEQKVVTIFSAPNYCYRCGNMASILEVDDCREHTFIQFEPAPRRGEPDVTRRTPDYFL

[6] = target: T5, Hypothetical Protein 006819-2510, Similar to Hemerocallis Senescence-Related Protein 5, bait fragment aa 1-150 (Oryza sativa)
T5 construct: bait; also called Os006819-2510; PN20462
T5 chain: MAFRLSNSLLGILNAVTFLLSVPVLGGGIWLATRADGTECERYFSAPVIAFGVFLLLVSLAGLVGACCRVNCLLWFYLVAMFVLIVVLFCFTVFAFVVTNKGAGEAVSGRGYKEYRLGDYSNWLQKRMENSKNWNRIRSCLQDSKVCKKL

[7] = target: T6, Soluble Starch Synthase, prey clone aa 68-270 (Oryza sativa, UniProt A2Y9M4 68-270)
T6 construct: prey; AD fusion; input trait library; also called OsSSS; PN19701
T6 sequence: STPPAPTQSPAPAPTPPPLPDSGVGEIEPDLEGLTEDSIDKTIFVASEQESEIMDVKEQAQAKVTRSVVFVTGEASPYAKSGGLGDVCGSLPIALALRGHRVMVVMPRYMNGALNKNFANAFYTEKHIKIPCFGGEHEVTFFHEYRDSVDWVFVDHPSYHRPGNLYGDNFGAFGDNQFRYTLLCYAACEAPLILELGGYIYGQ

[8] = target: T7, Soluble Starch Synthase, prey clone aa 97-263 (Oryza sativa, UniProt A2Y9M4 97-263)
T7 construct: prey; AD fusion; output trait library; also called OsSSS; PN19701
T7 sequence: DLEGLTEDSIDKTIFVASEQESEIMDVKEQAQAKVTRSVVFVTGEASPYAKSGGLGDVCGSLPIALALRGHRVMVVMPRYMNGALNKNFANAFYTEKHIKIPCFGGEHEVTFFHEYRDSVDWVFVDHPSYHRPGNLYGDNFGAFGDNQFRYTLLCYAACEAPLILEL

[9] = target: T8, Hypothetical Protein 003118-3674 Similar to Lycopersicon esculentum Calmodulin, bait fragment aa 75-149 (Oryza sativa, UniProt Q84VG0 75-148)
T8 construct: bait; also called PN20551
T8 sequence: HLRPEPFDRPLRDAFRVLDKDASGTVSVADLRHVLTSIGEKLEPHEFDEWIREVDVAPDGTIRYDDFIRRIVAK

- binding result [3]: binds
B7: Novel Protein PN29950, prey clone aa 138-343 (other)
chain: RRQGGEGQVDFGSMISSVLNNPAFGNLLSNVAEQTGMGSAGDLRNMVEECAQSPAIMDTMSNLVQNVDGSGRGQGGIDLSRMMQQMMPVVSQVLGGAGARPAGTNSGQSRLQPRRSDMRVDDASDYGNSQIDLHQAREHIEQHDSPRDIFGAVLETAAQAYGEDESIEDMLEELVSDPELTDDYLKLLLQQVRQRIQSASQSGNQS
notes: prey; AD fusion; output trait library; two clones; also called OsPN29950

- binding result [1]: binds
B8: Elicitor responsive protein, prey clone aa 54-144 (other)
chain: ETFMFSVTHNATELIIKLMDSDSGTDDDFVGEATISLEAIYTEGSIPPTVYNVVKEEEYRGEIKVGLTFTPEDDRDRGLSEEDIGGWKQSS
notes: prey; AD fusion; input trait library; also called OsERP; PN20696

- binding result [3]: binds
B9: Novel Protein PN29950, prey clone aa 50-343 (other)
chain: ASSRSEPVGLGGGLQPKRRSRTAKPPGSSSDTGEVVNSSRISNSQNAVSMGQQVLQALASQNTNVNRSHVTDSPLPSTTSQFSGGMPPRRQGGEGQVDFGSMISSVLNNPAFGNLLSNVAEQTGMGSAGDLRNMVEECAQSPAIMDTMSNLVQNVDGSGRGQGGIDLSRMMQQMMPVVSQVLGGAGARPAGTNSGQSRLQPRRSDMRVDDASDYGNSQIDLHQAREHIEQHDSPRDIFGAVLETAAQAYGEDESIEDMLEELVSDPELTDDYLKLLLQQVRQRIQSASQSGNQS
notes: prey; AD fusion; output trait library; also called OsPN29950

- binding result [6]: binds
B10: Novel Protein PN29037, prey clone aa 73-165 (other)
chain: VVFDKDGVLEQIGEGKGYVDMSTVDAATSCKISEAIKQKGGAFVEAPVSGSKKPAEDGQLVILAAGDKVLYDDMVPAFDVLGKKSFFLGEIGN
notes: prey; AD fusion; input trait library; also called OsPN29037

- binding result [5]: binds
B11: Hypothetical Protein 011994-D16, Similar to Z. mays DnaJ protein, prey clone aa 99-368 (other)
chain: FGPSFGGGGSSRGRRQRRGEDVIHPLKVSLEDLYNGTSKKLSLSRNVLCAKCKGKGSKSGASMRCPGCQGSGMKITIRQLGPSMIQQMQQPCNECKGTGESINEKDRCPGCKGEKVIQEKKVLEVHVEKGMQHNQKITFPGEADEAPDTVTGDIVFVLQQKDHSKFKRKGDDLFYEHTLSLTEALCGFQFVLTHLDNRQLLIKSNPGEVVKPDQFKAINDEGMPMYQRPFMKGKLYIHFTVEFPDSLAPEQCKALEAVLPPKPASQLTEM
notes: prey; AD fusion; output trait library; also called Os011994-D16; PN20618

- binding result [7]: binds
- binding result [8]: binds
B12: O. sativa Calreticulin Precursor, bait fragment aa 250-425 (other)
chain: PKEIPDPDAKKPEAGADEEDGEWTAPTIRNPEYKGPWKQKKIKNPNYQGKWKPPMIATPDFQDDPYIYAFDSLKSIGIELWQVKSGTLFDNILITDDAALAKTFAEETWAKHKDAEKAAFDEAEKKKEEEEAAKAGEDDDDLDDEDAEDEDKADEKADSDAEDGKDSDDEKHDEL
notes: bait; text says OsCRTC has 424 aa; also called OsCRTC; PN20544

- binding result [5]: binds
B13: Novel Protein PN24162, Porin-like, Voltage-Dependent Anion Channel Protein, prey clone aa 28-164 (other)
chain: QKLTVSTVSSSGVGLTSTAVKKGGLYTLDVSSVYKYKSTLVDVKVDTESNISTTLTVFDVLPSTKLVTSVKLPDYNSGKVEMQYFHENASFATAVGMKPSPVVEFSGTAGAQGLAFGAEAGFDTATGKFTKYSAAIG
notes: prey; AD fusion; output trait library; also called OsPN24162

- binding result [6]: binds
B14: Oryza sativa Putative Myosin, prey clone aa 685-888 (other)
chain: IYEQGLVLQQLKCCGVLEVVRISRSGYPTRMTHQKFARRYGFLLLEDVASQDPLSVSVAILHQFNILPEMYQVGYTKLFFRTGQIGKLEDTRNRTLHGILRVQSCFRGHQARRHARERIRGVLALQSFIRGENARKMYSSLARKHRAAIILQRNLKCWLARRYFVNIRKASVVIQSGIRGCLVRRCAGNVDLLNVLREFESKKE
notes: prey; AD fusion; output trait library; also called OsPN23878

- binding result [9]: binds
B15: Oryza sativa Putative Myosin, prey clone aa 824-935 (other)
chain: SLARKHRAAIILQRNLKCWLARRYFVNIRKASVVIQSGIRGCLVRRCAGNVDLLNVLREFESKKEAEGDQILIKASFLAELQRRILKAEATVREKDEENEMLQQRLQQYENR
notes: as for B14

The next lines start with the binder.

B1: HSP70-like PN23949, prey clone aa 244-418 (other)
chain: HKLKSSLILMPMVSLLLLLLIRVLGRNRISPSPALSTLPKDEVERMVEEADKFAQEDKEKRDAIDTKNQADSVVYQTEKQLKELGDKVPAPVKEKVDAKLNELKEAIAGGSTQSMKDAMAALNEEVMQIGQAMYNQQPNAGAAGPTPGADAGPTSSGGKGPNDGDVIDADFTDSN
notes: prey; AD fusion; output trait library
- binding result [1]: binds

B2: Receptor-like protein kinase-like PN31085, prey clone aa 378-553 (other)
chain: NGTISDSLGNLSELSDINLIGNNLTGHVPDSLTSLRLLQKLDLSGNDLTGPLPTFSPSVKVNVTGNLNFNGTAPGSAPSKDTPGSSSSRAPTLPGQGVLPENKKKRSAVVLATTIPVAVSVVALASVCAVLIFRKKRGSVPPNAASVVVHPRENSDPDNLVKIVMVNNDGNSSSTQ
notes: as for B1
- binding result [2]: binds

B3: OsSGT1, prey clone aa 9-227 (other)
chain: LESKAKAAFVDDDFELAAELYTQAIEASPATAELYADRAQAHIKLGNYTEAVADANKAIELDPSMHKAYLRKGAACIRLEEYQTAKAALELGYSFASGDSRFTRLMKECDERIAEELTEVPVKKAEDGAAAPSVASFVEEKDDAANMDNTPPMVEVKPKYRHDFYNSATEVVLTIFAKGVPAENVVVDFGEQMLSVSIEVPGEEPYHFQPRLFSKIIPE
notes: prey; AD fusion; output trait library; also called PN20285
- binding result [1]: binds

B4: Novel Protein PN29950, prey clone aa 7-103 (other)
chain: TANLVGQITTTCTDDISVNRSAENSSQKNIPLDGVSAQSIKPSASSRSEPVGLGGGLQPKRRSRTAKPPGSSSDTGEVVNSSRISNSQNAVSMGQQV
notes: as for B9
- binding result [3]: binds

Binder: B5
- binding result [4]: binds

B6: O. sativa Glutelin CAA33838, prey clone aa 5-155 (other)
chain: VFSRFSIYFCVLLLCHGSMAQLFNPSTNPWHSPRQGSFRECRFDRLQAFEPLRKVRSEAGVTEYFDEKNELFQCTGTFVIRRVIQPQGLLVPRYTNIPGVVYIIQGRGSMGLTFPGCPATYQQQFQQFSSQGQSQSQKFRDEHQKIHQFRQ
notes: prey; AD fusion; output trait library; also called OsCAA33838; PN24775
- binding result [5]: binds
